Measured values published in patent US20160017055A1.

Target: wild type plasma kallikrein recombinant catalytic domain (Pichia pastoris) (human) (UniProt P03952)
Experiment: enzyme inhibition assay: rate (F/s) of cleavage of a substrate peptide by PKal against [IgG] (nM), fitted to the Morrison equation (apparent Ki); panel 'X115-F02 vs WT'

- Ki: 0.09 nM
B1: X115-F02 (antibody, human IgG1, kappa, V domains shown)
VH: EVQLLESGGGLVQPGGSLRLSCAASGFTFSHYIMMWVRQAPGKGLEWVSGIYSSGGITVYADSVKGRFTISRDNSKNTLYLQMNSLRAEDTAVYYCAYRRIGVPRRDEFDIWGQGTMVTVSS
VL: DIQMTQSPSTLSASVGDRVTITCRASQSISSWLAWYQQKPGKAPKLLIYKASTLESGVPSRFSGSGSGTEFTLTISSLQPDDFATYYCQQYNTYWTFGQGTKVEIKR
